According to PMC4425231:

Experiments:
[1] = biological target: p50 dimerization domain (UniProt P25799); assay: AUC + SEC
[2] = biological target: IκBβ (endogenous, MEF cytoplasmic extract) (mouse (endogenous in MEFs)) (UniProt Q60778); assay: kinetic model fitted to immunoblot abundances of IκBs in NFκB-knockout MEFs
[3] = biological target: IκBβ (endogenous, MEF cytoplasmic extract) (mouse (endogenous in MEFs)) (UniProt Q60778); assay: immunodepletion followed by deoxycholate EMSA

Chain of IκBβ (endogenous, MEF cytoplasmic extract) (mouse (endogenous in MEFs)) (Q60778 whole entry): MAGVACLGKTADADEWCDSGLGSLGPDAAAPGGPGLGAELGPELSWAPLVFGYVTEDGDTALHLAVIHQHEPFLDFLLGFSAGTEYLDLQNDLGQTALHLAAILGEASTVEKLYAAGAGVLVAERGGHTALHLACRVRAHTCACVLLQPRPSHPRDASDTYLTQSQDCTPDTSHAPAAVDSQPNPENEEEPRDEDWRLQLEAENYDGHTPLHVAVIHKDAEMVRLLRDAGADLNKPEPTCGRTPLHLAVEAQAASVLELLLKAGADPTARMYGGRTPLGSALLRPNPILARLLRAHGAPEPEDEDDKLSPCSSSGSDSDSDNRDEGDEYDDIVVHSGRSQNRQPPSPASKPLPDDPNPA
Chain of p50 dimerization domain (P25799 1-431): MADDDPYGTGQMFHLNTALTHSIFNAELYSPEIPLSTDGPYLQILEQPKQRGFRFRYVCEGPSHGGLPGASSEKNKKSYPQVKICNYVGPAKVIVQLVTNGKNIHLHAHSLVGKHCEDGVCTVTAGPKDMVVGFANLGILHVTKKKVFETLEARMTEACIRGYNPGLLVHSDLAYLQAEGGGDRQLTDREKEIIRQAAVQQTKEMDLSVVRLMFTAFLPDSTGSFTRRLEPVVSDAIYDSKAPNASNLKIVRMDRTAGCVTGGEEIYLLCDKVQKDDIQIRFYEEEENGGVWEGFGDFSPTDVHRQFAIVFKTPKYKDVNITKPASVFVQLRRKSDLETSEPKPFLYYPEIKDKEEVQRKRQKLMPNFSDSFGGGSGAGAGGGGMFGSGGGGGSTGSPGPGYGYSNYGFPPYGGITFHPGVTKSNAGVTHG

Row | Substance | Kd [1] [nM] | Kd [2] [nM] | percent of the dimer bound to this IκB [3] [%]
1 | RelA dimerization domain (from UniProt Q04207 1-549) (domain or fragment) | 10 | – | –
2 | RelA:RelA homodimer (endogenous, MEF cytoplasmic extract) (from UniProt Q04207 1-549) (complex) | – | 0.0032 | > 50
